Target: the molecule itself
Experiment: zonal velocity sedimentation in a glycerol gradient

B1: CshA-His6 (natural protein, S. aureus, UniProt Q2FWH5 1-506, looked up)
chain: MQNFKELGISDNTVQSLESMGFKEPTPIQKDSIPYALQGIDILGQAQTGTGKTGAFGIPLIEKVVGKQGVQSLILAPTRELAMQVAEQLREFSRGQGVQVVTVFGGMPIERQIKALKKGPQIVVGTPGRVIDHLNRRTLKTDGIHTLILDEADEMMNMGFIDDMRFIMDKIPAVQRQTMLFSATMPKAIQALVQQFMKSPKIIKTMNNEMSDPQIEEFYTIVKELEKFDTFTNFLDVHQPELAIVFGRTKRRVDELTSALISKGYKAEGLHGDITQAKRLEVLKKFKNDQINILVATDVAARGLDISGVSHVYNFDIPQDTESYTHRIGRTGRAGKEGIAVTFVNPIEMDYIRQIEDANGRKMSALRPPHRKEVLQAREDDIKEKVENWMSKESESRLKRISTELLNEYNDVDLVAALLQELVEANDEVEVQLTFEKPLSRKGRNGKPSGSRNRNSKRGNPKFDSKSKRSKGYSSKKKSTKKFDRKEKSSGGSRPMKGRTFADHQK
  stoichiometry N: 2
